According to patent publication US20160002343A1 (AbbVie / Abbott, published 2016):

T1: Repulsive guidance molecule A (Mus musculus (Mouse), UniProt Q6PCX7 48-427, GPI anchor at the C-terminus after removal of 428-454. Autocatalytic cleavage between 169 and 170 may split the protein into two disulfide-linked fragments. The letters carry neither.)
T1 sequence: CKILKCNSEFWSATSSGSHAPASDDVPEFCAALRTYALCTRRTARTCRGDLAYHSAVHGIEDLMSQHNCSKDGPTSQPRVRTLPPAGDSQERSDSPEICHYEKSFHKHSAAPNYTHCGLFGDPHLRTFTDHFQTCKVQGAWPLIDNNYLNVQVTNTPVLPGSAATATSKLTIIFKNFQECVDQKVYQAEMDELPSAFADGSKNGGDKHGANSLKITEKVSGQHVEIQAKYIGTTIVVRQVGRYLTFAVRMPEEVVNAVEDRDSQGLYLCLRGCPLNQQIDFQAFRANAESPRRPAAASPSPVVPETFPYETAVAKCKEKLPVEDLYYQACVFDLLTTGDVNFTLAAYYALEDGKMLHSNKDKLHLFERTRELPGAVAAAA

B1: DVD2366 (bispecific antibody)
VH-VH: EVQLLESGGGLVQPGGSLRLSCAASGFTFSNYGMSWVRQAPGKGLEWVASIRSGGGRTYYSDNVKGRFTISRDNSKNTLYLQMNSLRAEDTAVYYCVRYDHYSGSSDYWGQGTLVTVSSASTKGPQVQLVQSGAEVKKPGASVKVSCKASGFTFSNYGMHWIRQAPGQGLEWIAMIYYDSSKMNYADTVKGRFTITRDNSTNTLYMELSSLRSEDTAVYYCAVPTSHYVVDVWGQGTTVTVSS
VL-VL: DVVMTQSPLSLPVTPGEPASISCKSSQSLLDSDGKTYLNWLLQKPGQSPQRLIYLVSKLDSGVPDRFSGSGSGTDFTLKISRVEAEDVGVYYCWQGTHFPRTFGQGTKVEIKRTVAAPEIVMTQSPATLSVSPGERATLSCQASQDIGNWLAWYQQKPGQSPRLLIYGATSLADGVPARFSGSRSGTEFTLTISSLQSEDFAVYYCLQAYNTPWTFGGGTKVEIK
notes: DVD-Ig
B2: RGMA(AE12-1)-GS-TfR(AB403) DVD-Ig protein (bispecific antibody, human IgG1, not shown: a dimerising Fc or GST)
heavy: EVQLVQSGAEVKKPGASVKVSCKASGYTFTSHGISWVRQAPGQGLDWMGWISPYSGNTNYAQKLQGRVTMTTDTSTSTAYMELSSLRSEDTAVYYCARVGSGPYYYMDVWGQGTLVTVSSGGGGSGGGGSEVQLVESGGGLVQPGGSLRLSCAASGFTFSNYGMHWIRQAPGKGLEWIAMIYYDSSKMNYADTVKGRFTISRDNAKNSLYLQMNSLRAEDTAVYYCAVPTSHYVVDVWGQGTTVTVSS
light: QSALTQPRSVSGSPGQSVTISCTGTSSSVGDSIYVSWYQQHPGKAPKLMLYDVTKRPSGVPDRFSGSKSGNTASLTISGLQAEDEADYYCCSYAGTDTLFGGGTKVTVLGGGSGGGGSGEIVMTQSPATLSVSPGERATLSCQASQDIGNWLAWYQQKPGQSPRLLIYGATSLADGVPARFSGSRSGTEFTLTISSLQSEDFAVYYCLQAYNTPWTFGGGTKVEIKR
B3: RGMA (AE12-1) (antibody, V domains shown)
VH: EVQLVQSGAEVKKPGASVKVSCKASGYTFTSHGISWVRQAPGQGLDWMGWISPYSGNTNYAQKLQGRVTMTTDTSTSTAYMELSSLRSEDTAVYYCARVGSGPYYYMDVWGQGTLVTVSS
VL: QSALTQPRSVSGSPGQSVTISCTGTSSSVGDSIYVSWYQQHPGKAPKLMLYDVTKRPSGVPDRFSGSKSGNTASLTISGLQAEDEADYYCCSYAGTDTLFGGGTKVTVLG
B4: RGMA(AE12-1)-LS-TfR(AB403) (bispecific antibody)
VH: EVQLVQSGAEVKKPGASVKVSCKASGYTFTSHGISWVRQAPGQGLDWMGWISPYSGNTNYAQKLQGRVTMTTDTSTSTAYMELSSLRSEDTAVYYCARVGSGPYYYMDVWGQGTLVTVSSASTKGPSVFPLAPEVQLVESGGGLVQPGGSLRLSCAASGFTFSNYGMHWIRQAPGKGLEWIAMIYYDSSKMNYADTVKGRFTISRDNAKNSLYLQMNSLRAEDTAVYYCAVPTSHYVVDVWGQGTTVTVSS
VL: QSALTQPRSVSGSPGQSVTISCTGTSSSVGDSIYVSWYQQHPGKAPKLMLYDVTKRPSGVPDRFSGSKSGNTASLTISGLQAEDEADYYCCSYAGTDTLFGGGTKVTVLGQPKAAPEIVMTQSPATLSVSPGERATLSCQASQDIGNWLAWYQQKPGQSPRLLIYGATSLADGVPARFSGSRSGTEFTLTISSLQSEDFAVYYCLQAYNTPWTFGGGTKVEIK
B5: RGMA(AE12-1)-SS-TfR(AB403) (bispecific antibody)
VH: EVQLVQSGAEVKKPGASVKVSCKASGYTFTSHGISWVRQAPGQGLDWMGWISPYSGNTNYAQKLQGRVTMTTDTSTSTAYMELSSLRSEDTAVYYCARVGSGPYYYMDVWGQGTLVTVSSASTKGPEVQLVESGGGLVQPGGSLRLSCAASGFTFSNYGMHWIRQAPGKGLEWIAMIYYDSSKMNYADTVKGRFTISRDNAKNSLYLQMNSLRAEDTAVYYCAVPTSHYVVDVWGQGTTVTVSS
VL: QSALTQPRSVSGSPGQSVTISCTGTSSSVGDSIYVSWYQQHPGKAPKLMLYDVTKRPSGVPDRFSGSKSGNTASLTISGLQAEDEADYYCCSYAGTDTLFGGGTKVTVLGQPKAAPEIVMTQSPATLSVSPGERATLSCQASQDIGNWLAWYQQKPGQSPRLLIYGATSLADGVPARFSGSRSGTEFTLTISSLQSEDFAVYYCLQAYNTPWTFGGGTKVEIK
B6: TfR(AB405)-SL-RGMA(AE12-1) (bispecific antibody)
VH: QVQLVQSGAEVKKPGASVKVSCKASGFTFSNYGMHWIRQAPGQGLEWIAMIYYDSSKMNYADTVKGRFTITRDNSTNTLYMELSSLRSEDTAVYYCAVPTSHYVVDVWGQGTTVTVSSASTKGPEVQLVQSGAEVKKPGASVKVSCKASGYTFTSHGISWVRQAPGQGLDWMGWISPYSGNTNYAQKLQGRVTMTTDTSTSTAYMELSSLRSEDTAVYYCARVGSGPYYYMDVWGQGTLVTVSS
VL: EIVMTQSPATLSVSPGERATLSCQASQDIGNWLAWYQQKPGQSPRLLIYGATSLADGVPARFSGSRSGTEFTLTISSLQSEDFAVYYCLQAYNTPWTFGGGTKVEIKRTVAAPSVFIFPPQSALTQPRSVSGSPGQSVTISCTGTSSSVGDSIYVSWYQQHPGKAPKLMLYDVTKRPSGVPDRFSGSKSGNTASLTISGLQAEDEADYYCCSYAGTDTLFGGGTKVTVL
B7: RGMA(AE12-1)-GS-TfR(AB402) (bispecific antibody, part only; not given: anti-TfR domains, constants, not shown: a dimerising Fc or GST)
heavy, part: EVQLVQSGAEVKKPGASVKVSCKASGYTFTSHGISWVRQAPGQGLDWMGWISPYSGNTNYAQKLQGRVTMTTDTSTSTAYMELSSLRSEDTAVYYCARVGSGPYYYMDVWGQGTLVTVSSGGGGSGGGGS
light, part: QSALTQPRSVSGSPGQSVTISCTGTSSSVGDSIYVSWYQQHPGKAPKLMLYDVTKRPSGVPDRFSGSKSGNTASLTISGLQAEDEADYYCCSYAGTDTLFGGGTKVTVLGGGSGGGGSG
B8: RGMA(AE12-1)-SS-TfR(AB402) (bispecific antibody, part only; not given: Inner anti-TfR domains, linkers, constant regions, not shown: a dimerising Fc or GST)
heavy, part: EVQLVQSGAEVKKPGASVKVSCKASGYTFTSHGISWVRQAPGQGLDWMGWISPYSGNTNYAQKLQGRVTMTTDTSTSTAYMELSSLRSEDTAVYYCARVGSGPYYYMDVWGQGTLVTVSS
light, part: QSALTQPRSVSGSPGQSVTISCTGTSSSVGDSIYVSWYQQHPGKAPKLMLYDVTKRPSGVPDRFSGSKSGNTASLTISGLQAEDEADYYCCSYAGTDTLFGGGTKVTVLG
B9: TfR(AB405)-LL-RGMA(AE12-1) (bispecific antibody, part only; not given: Outer anti-TfR domains, linkers, constant regions, not shown: a dimerising Fc or GST)
heavy, part: EVQLVQSGAEVKKPGASVKVSCKASGYTFTSHGISWVRQAPGQGLDWMGWISPYSGNTNYAQKLQGRVTMTTDTSTSTAYMELSSLRSEDTAVYYCARVGSGPYYYMDVWGQGTLVTVSS
light, part: QSALTQPRSVSGSPGQSVTISCTGTSSSVGDSIYVSWYQQHPGKAPKLMLYDVTKRPSGVPDRFSGSKSGNTASLTISGLQAEDEADYYCCSYAGTDTLFGGGTKVTVLG
B10: TfR(AB405)-GS-RGMA(AE12-1) (bispecific antibody, part only; not given: anti-TfR domains, constants, not shown: a dimerising Fc or GST)
heavy, part: GGGGSGGGGSEVQLVQSGAEVKKPGASVKVSCKASGYTFTSHGISWVRQAPGQGLDWMGWISPYSGNTNYAQKLQGRVTMTTDTSTSTAYMELSSLRSEDTAVYYCARVGSGPYYYMDVWGQGTLVTVSS
light, part: GGSGGGGSGQSALTQPRSVSGSPGQSVTISCTGTSSSVGDSIYVSWYQQHPGKAPKLMLYDVTKRPSGVPDRFSGSKSGNTASLTISGLQAEDEADYYCCSYAGTDTLFGGGTKVTVLG

Molecular target: T2, mouse Transferrin Receptor overexpressed on Hek 293 cells (mouse, UniProt Q62351 1-763)
T2 construct: whole, on cells; also called mTfR; Hek293/mTfR
Test: cell-based MSD-ECL binding, Hek293/mTfR cells
Experimental: Meso-scale Discovery (MSD) Electrochemiluminescence (ECL) assays to screen for antibodies or DVD-Ig proteins that bind a desired target antigen expressed on the cell surface were performed as follows: Hek 293 cells overexpressing mouse Transferrin Receptor were added onto MSD 96-well plates (MSD Cat# L11 XB-3, lot#2290-EA). The plates which were blocked using blocking buffer (30% FBS Serum (Hyclone) in PBS) at 37° C. for 1 hour. After incubating at room temperature (RT) for 30 minutes with mild agitation, plates were washed with DPBS 3 times and Abs/DVD-Ig proteins (10,000 ng/ml) were added. After incubating for 1 hour at RT, plates were washed 3 times with DPBS and 25 μl of Goat anti-human Sulfo TAG (MSD Cat# R32AC-, Lot# W001162) at 1 μg/ml was added. Following incubation at RT for 1 hour, plates were washed and MSD read buffer was added before reading on a MSD SECTOR Imager 6000. EC50 values were obtained using Xlfit4 software package.

T2 sequence (Q62351 whole entry): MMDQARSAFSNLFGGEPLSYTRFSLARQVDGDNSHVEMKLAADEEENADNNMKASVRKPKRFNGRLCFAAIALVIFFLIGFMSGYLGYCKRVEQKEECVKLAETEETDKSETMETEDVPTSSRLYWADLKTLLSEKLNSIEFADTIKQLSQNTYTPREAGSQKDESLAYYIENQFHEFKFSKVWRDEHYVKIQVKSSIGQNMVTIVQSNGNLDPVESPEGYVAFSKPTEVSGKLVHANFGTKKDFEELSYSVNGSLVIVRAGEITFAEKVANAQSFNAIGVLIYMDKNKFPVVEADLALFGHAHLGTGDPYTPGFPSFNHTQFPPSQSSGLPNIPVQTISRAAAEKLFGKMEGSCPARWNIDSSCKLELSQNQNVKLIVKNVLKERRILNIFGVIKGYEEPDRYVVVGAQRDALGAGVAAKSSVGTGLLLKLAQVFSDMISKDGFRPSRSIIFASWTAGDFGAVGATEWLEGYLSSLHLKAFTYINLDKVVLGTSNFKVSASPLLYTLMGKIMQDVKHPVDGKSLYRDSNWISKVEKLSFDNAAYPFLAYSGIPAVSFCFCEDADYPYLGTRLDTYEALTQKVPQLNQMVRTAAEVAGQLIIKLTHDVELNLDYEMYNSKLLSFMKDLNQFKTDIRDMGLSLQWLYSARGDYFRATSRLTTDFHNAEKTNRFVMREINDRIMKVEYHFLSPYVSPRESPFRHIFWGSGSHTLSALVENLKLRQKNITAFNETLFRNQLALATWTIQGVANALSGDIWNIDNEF

| Binder | binding result |
| --- | --- |
| B1 | no binding (tested: 10,000 ng/ml) |

Molecular target: T1, Repulsive guidance molecule A
Test: cell-based or functional assay

| Binder | BMP Assay IC50 [nM] |
| --- | --- |
| B2 | < 0.025 |
| B3 | 0.25 |
| B4 | < 0.025 |
| B5 | 1.18 |
| B6 | 0.73 |

Molecular target: Repulsive guidance molecule A (Mus musculus (Mouse)) (UniProt Q6PCX7)
Test: cell-based or functional assay

| Binder | BMP Assay IC50 [nM] |
| --- | --- |
| B7 | 0.014 |
| B8 | 0.436 |
| B9 | 0.701 |
| B10 | 3.12 |
